T1: PFPQPQLPY peptide
T1 chain: PFPQPQLPY

B1: Kuma010/011 E221D (protein)
chain: AAPTAYTPLDVAQAYQFPEGLDGQGQCIAIIDLGGGYDEASLAQYFASLGVPAPQVVSVSVDGASNQPTGDPKGPDGEVELDIEVAGALAPGAKFAVYFAPDTTAGFLDAITTAIHDPTLKPSVVSISWSGPEDSWTSAAIAAMNRAFLDAAALGVTVLAAAGDSGSTGGEQDGLYHVHFPAASPYVLACGGTRLVASGGRIAQETVWNDGPDGGATGGGVSRIFPLPAWQEHANVPPSANPGASSGRGVPDLAGNADPATGYEVVIDGEATVIGGTSAVAPLFAALVARINQKLGKAVGYLNPTLYQLPADVFHDITEGNNDIANRAQIYQAGPGWDPCTGLGSPIGVRLLQALLPSASQPQ
B2: Kuma010/011 E221Q (protein)
chain: AAPTAYTPLDVAQAYQFPEGLDGQGQCIAIIQLGGGYDEASLAQYFASLGVPAPQVVSVSVDGASNQPTGDPKGPDGEVELDIEVAGALAPGAKFAVYFAPDTTAGFLDAITTAIHDPTLKPSVVSISWSGPEDSWTSAAIAAMNRAFLDAAALGVTVLAAAGDSGSTGGEQDGLYHVHFPAASPYVLACGGTRLVASGGRIAQETVWNDGPDGGATGGGVSRIFPLPAWQEHANVPPSANPGASSGRGVPDLAGNADPATGYEVVIDGEATVIGGTSAVAPLFAALVARINQKLGKAVGYLNPTLYQLPADVFHDITEGNNDIANRAQIYQAGPGWDPCTGLGSPIGVRLLQALLPSASQPQ
B3: Kuma010/011 E221H (protein)
chain: AAPTAYTPLDVAQAYQFPEGLDGQGQCIAIIHLGGGYDEASLAQYFASLGVPAPQVVSVSVDGASNQPTGDPKGPDGEVELDIEVAGALAPGAKFAVYFAPDTTAGFLDAITTAIHDPTLKPSVVSISWSGPEDSWTSAAIAAMNRAFLDAAALGVTVLAAAGDSGSTGGEQDGLYHVHFPAASPYVLACGGTRLVASGGRIAQETVWNDGPDGGATGGGVSRIFPLPAWQEHANVPPSANPGASSGRGVPDLAGNADPATGYEVVIDGEATVIGGTSAVAPLFAALVARINQKLGKAVGYLNPTLYQLPADVFHDITEGNNDIANRAQIYQAGPGWDPCTGLGSPIGVRLLQALLPSASQPQ
B4: Kuma011-N424K (protein)
chain: AAPTAYTPLDVAQAYQFPEGLDGQGQCIAIIELGGGYDEASLAQYFASLGVPAPQVVSVSVDGASNQPTGDPKGPDGEVELDIEVAGALAPGAKFAVYFAPDTTAGFLDAITTAIHDPTLKPSVVSISWSGPEDSWTSAAIAAMNRAFLDAAALGVTVLAAAGDSGSTGGEQDGLYHVHFPAASPYVLACGGTRLVASGGRIAQETVWNDGPDGGATGGGVSRIFPLPAWQEHAKVPPSANPGASSGRGVPDLAGNADPATGYEVVIDGEATVIGGTSAVAPLFAALVARINQKLGKAVGYLNPTLYQLPADVFHDITEGNNDIANRAQIYQAGPGWDPCTGLGSPIGVRLLQALLPSASQPQ
B5: Kuma010/011 E221N (protein)
chain: AAPTAYTPLDVAQAYQFPEGLDGQGQCIAIINLGGGYDEASLAQYFASLGVPAPQVVSVSVDGASNQPTGDPKGPDGEVELDIEVAGALAPGAKFAVYFAPDTTAGFLDAITTAIHDPTLKPSVVSISWSGPEDSWTSAAIAAMNRAFLDAAALGVTVLAAAGDSGSTGGEQDGLYHVHFPAASPYVLACGGTRLVASGGRIAQETVWNDGPDGGATGGGVSRIFPLPAWQEHANVPPSANPGASSGRGVPDLAGNADPATGYEVVIDGEATVIGGTSAVAPLFAALVARINQKLGKAVGYLNPTLYQLPADVFHDITEGNNDIANRAQIYQAGPGWDPCTGLGSPIGVRLLQALLPSASQPQ

The target in the data set is T1, PFPQPQLPY peptide.
As for B1, the “% Improvement on PFPQPQLPY (SEQ ID NO: 67)” value came to 105%.

With B2, the “% Improvement on PFPQPQLPY (SEQ ID NO: 67)” value was found to be 105%.

Turning to B3, the “% Improvement on PFPQPQLPY (SEQ ID NO: 67)” value is given as 105%.

Take B4: the “% Improvement on PFPQPQLPY (SEQ ID NO: 67)” value worked out at 285%.

In the case of B5, the “% Improvement on PFPQPQLPY (SEQ ID NO: 67)” value is 105%.

The record behind these values is patent US20180142226.
